The target in experiment [1] is T1, human fibroblast activation protein (hFAP) (human, UniProt Q12884 26-760, limits assumed).
T1 construct: Recombinant soluble protein; also called human FAP; rhFAP
Kind of experiment: SPR (ProteOn XPR36); end of the group's range, tied to #44 by Table 15. How it is done:
(§1) Assay set-up: Briefly, SPR measurements were performed using a ProteOn XPR36 instrument (BioRad) as described above. Biotinylated human and cynomolgus 4-1BB and human FAP were immobilized either directly or indirectly via NeutrAvidin (˜6000 RU pre-coated) on a GLC chip to reach 600 RU, 700 RU and 2000 RU, respectively. The interaction of FAP-4-1BB bispecific constructs to the coated targets was measured by injecting the bispecific constructs in a serial dilution of 50, 16.7, 5.6, 1.9 and 0.6 nM with an association of 120 s and dissociation of 1800 s using a constant flow rate of 30 μl/min. Targets were regenerated between the individual measurements using 10 mM glycine pH 2 and 124 mM H₃PO₄. The signals were double referenced against the running buffer (PBST) treated control lane.
Target sequence in this assay (Q12884 26-760 limits assumed): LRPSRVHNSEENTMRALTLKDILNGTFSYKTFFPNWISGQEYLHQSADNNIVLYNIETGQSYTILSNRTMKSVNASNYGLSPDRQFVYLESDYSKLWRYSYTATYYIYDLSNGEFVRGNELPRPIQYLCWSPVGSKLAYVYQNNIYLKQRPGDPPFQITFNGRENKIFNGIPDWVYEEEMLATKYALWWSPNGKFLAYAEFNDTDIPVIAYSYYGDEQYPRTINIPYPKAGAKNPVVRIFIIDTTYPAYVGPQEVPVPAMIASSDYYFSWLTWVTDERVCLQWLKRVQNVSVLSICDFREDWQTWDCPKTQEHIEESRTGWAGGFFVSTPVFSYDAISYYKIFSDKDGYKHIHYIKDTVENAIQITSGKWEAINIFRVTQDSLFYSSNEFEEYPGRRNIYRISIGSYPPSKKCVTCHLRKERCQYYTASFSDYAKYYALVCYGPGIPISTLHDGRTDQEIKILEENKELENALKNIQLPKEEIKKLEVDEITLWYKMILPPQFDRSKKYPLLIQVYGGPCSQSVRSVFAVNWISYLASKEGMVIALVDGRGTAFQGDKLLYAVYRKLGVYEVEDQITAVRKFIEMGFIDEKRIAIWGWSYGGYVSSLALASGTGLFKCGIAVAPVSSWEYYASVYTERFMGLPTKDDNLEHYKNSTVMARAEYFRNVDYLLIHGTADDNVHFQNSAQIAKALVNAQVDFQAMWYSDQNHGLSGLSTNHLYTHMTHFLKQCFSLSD

Experiment [2] concerns the target T2, human 4-1BB on transfected HT1080 NF-kB-luciferase reporter cells (human, UniProt Q07011 24-255). Briefly: cell-based or functional assay.
Experiment [3] concerns the target T3, biotinylated human 4-1BB (bio.h4-1BB) (human, UniProt Q07011 24-186, limits assumed, biotinylated (site not stated)).
T3 construct: also called CD137
Kind of experiment: SPR (ProteOn XPR36), biotinylated h4-1BB immobilised on GLC chip, construct as analyte. How it is done:
as §1

The target in experiment [4] is T2, human 4-1BB on transfected HT1080 …. Kind of experiment: cell-based or functional assay. The source holds these as a separate data set.
Experiment [5] addresses T1, human fibroblast activation protein …. Briefly: SPR (ProteOn XPR36), hFAP immobilised on GLC chip, construct as analyte. On the procedure: as §1
Target sequence in this assay (Q12884 26-760 limits assumed): as above
For experiment [6], the target named is T2, human 4-1BB on transfected HT1080 …. Kind of experiment: cell-based or functional assay. The source holds these as a separate data set.
Experiment [7] concerns the target T4, human 4-1BB on primary human CD8 T cells (human, UniProt Q07011 24-255). Briefly: cell-based or functional assay.
The target of experiment [8] is T5, cynomolgus FAP (cFAP) (cynomolgus monkey).
T5 chain: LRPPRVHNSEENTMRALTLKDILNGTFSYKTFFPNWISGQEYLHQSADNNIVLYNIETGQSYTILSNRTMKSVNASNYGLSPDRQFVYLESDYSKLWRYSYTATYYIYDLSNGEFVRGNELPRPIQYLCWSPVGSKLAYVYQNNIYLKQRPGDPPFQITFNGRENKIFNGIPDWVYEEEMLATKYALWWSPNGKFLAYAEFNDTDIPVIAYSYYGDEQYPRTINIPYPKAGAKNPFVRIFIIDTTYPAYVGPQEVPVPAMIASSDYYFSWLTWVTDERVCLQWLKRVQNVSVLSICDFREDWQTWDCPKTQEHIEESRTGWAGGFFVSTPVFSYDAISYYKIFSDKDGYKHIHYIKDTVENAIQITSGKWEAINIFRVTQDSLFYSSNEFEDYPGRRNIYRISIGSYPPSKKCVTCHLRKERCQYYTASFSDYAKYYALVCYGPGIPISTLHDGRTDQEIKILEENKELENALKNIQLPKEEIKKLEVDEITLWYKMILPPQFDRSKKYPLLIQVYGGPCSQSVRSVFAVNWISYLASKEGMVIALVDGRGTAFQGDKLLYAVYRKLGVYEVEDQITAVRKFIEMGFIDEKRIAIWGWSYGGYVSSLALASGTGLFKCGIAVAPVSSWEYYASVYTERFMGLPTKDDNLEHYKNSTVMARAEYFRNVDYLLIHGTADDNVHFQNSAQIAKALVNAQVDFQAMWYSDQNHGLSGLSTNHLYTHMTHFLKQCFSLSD
Briefly: SPR (ProteOn XPR36), cFAP on GLC chip, MpA analyte, 1:1 Langmuir fit. On the procedure:
(§2) ProteOn setup for MpA binding to FAP of different species: SPR measurements were performed using a ProteOn XPR36 instrument (BioRad). The running buffer was PBS pH 7.4 containing 0.005% Tween 200 (PBST). hFAP (human FAP), cFAP (cynomolgus FAP) and mFAP (mouse FAP) were immobilized on a GLC chip (BioRad) at pH 5.3 to a level of 2000 RU, 1700 RU and 5000 RU, respectively. The interaction of FAP and MpA was measured by applying the MpA molecule as titration (see Table 2).

The target of experiment [9] is mouse FAP (mFAP) (mouse, UniProt P97321 26-761, limits assumed). Kind of experiment: SPR (ProteOn XPR36), mFAP on GLC chip, MpA as analyte. On the procedure:
as §2

Experiment [10] has as its target mouse serum albumin (MSA) (mouse, UniProt P07724 25-608). Briefly: SPR (ProteOn XPR36), MpA captured on bio.h4-1BB, MSA analyte, 1:1 Langmuir fit. On the procedure: (§3) ProteOn setup for MpA binding to serum albumin of different species: SPR measurements were performed using a ProteOn XPR36 instrument (BioRad). The running buffer was PBS pH 7.4 containing 0.005% Tween 20® (PBST). First, bio.h4-1BB was coated on NLC chip (BioRad) to a level of 320 RU before […] MpA was immobilized for 180 s at constant flow of 30 μl/min to a level of 200 RU. The binding of the serum albumin to MpA was detected by applying HSA (human serum albumin), CSA (cynomolgus serum albumin) and MSA (mouse serum albumin) as titration with a 180 s association and 1800 s dissociation phase using a constant flow of 100 μl/min. HSA, CSA and MSA binding was measured serially and the bio.h4-1BB/MpA complex was regenerated each time with 10 mM glycine pH 2 and 124 mM H3P04. Thus, MpA had to be recoated after each regeneration step. The signals were double referenced against the running buffer (PBST) treated control lane of L1 and A6. The 1:1 Langmuir model was used for the fitting.

The target in experiment [11] is T6, biotinylated mouse 4-1BB (bio.m4-1BB) (mouse, UniProt P20334 24-187, limits assumed, biotinylated (site not stated)).
T6 sequence (looked up): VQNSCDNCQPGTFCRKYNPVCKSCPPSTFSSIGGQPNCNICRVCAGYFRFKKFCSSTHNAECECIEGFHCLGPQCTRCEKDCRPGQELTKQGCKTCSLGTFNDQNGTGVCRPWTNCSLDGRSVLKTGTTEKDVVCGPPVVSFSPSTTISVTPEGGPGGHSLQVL
Kind of experiment: SPR (ProteOn XPR36), bio.m4-1BB on NLC chip, MpA as analyte. On the procedure:
(§4) ProteOn setup for MpA binding to 4-1BB of different species: SPR measurements were performed using a ProteOn XPR36 instrument (BioRad). The running buffer was PBS pH 7.4 containing 0.005% Tween 20® (PBST). The bio.h4-1BB, bio.c4-1BB and bio.m4-1BB were immobilized on NLC chips (BioRad) to a level of 320 RU. The binding of MpA to 4-1BB was measured by injecting MpA in a serial dilution of 30, 10, 3.3, 1.1 and 0.3 nM with an association of 180 s and dissociation of 1800 s using a constant flow of 100 μl/min (see Table 3). The measurement was repeated three times and the targets were regenerated between the individual measurements using 10 mM glycine pH 2 and 124 mM H₃PO₄. The signals were double referenced against the running buffer (PBST) treated control lane of L1 and A6. h4-1BB, c-4-1BB, and m4-1BB refer to human, cynomolgus, and mouse orthologs of 4-1BB, respectively.

The target in experiment [12] is T2, human 4-1BB on transfected HT1080 …. Kind of experiment: cell-based or functional assay. The source holds these as a separate data set.
Experiment [13] concerns the target cynomolgus serum albumin (CSA) (cynomolgus monkey, UniProt A2V9Z4 25-608). Kind of experiment: SPR (ProteOn XPR36), MpA captured on bio.h4-1BB, CSA analyte, 1:1 Langmuir fit. How it is done: as §3
For experiment [14], the target named is T4, human 4-1BB on primary human CD8 T cells. Briefly: cell-based or functional assay. The source holds these as a separate data set.
Experiment [15] addresses T3, biotinylated human 4-1BB (bio.h4-1BB). Kind of experiment: SPR (ProteOn XPR36), bio.h4-1BB on NLC chip, MpA analyte; mean of triplicate. On the procedure:
as §4

In experiment [16] the target is T1, human fibroblast activation protein …. Briefly: SPR (ProteOn XPR36), hFAP on GLC chip, MpA analyte, 1:1 Langmuir fit; mean of duplicate. How it is done:
as §2
Two independent measurements were conducted to detect the binding of MpA to hFAP. The targets were regenerated using 10 mM glycine pH 2 and 124 mM H₃PO₄. The signals were double referenced against the PBST treated control lane of L1 and A6. The 1:1 Langmuir model was used for the fitting.

For experiment [17], the target named is T3, biotinylated human 4-1BB (bio.h4-1BB). Briefly: SPR (ProteOn XPR36), bio.h4-1BB on NLC chip, MpA analyte; mean of triplicate; apparent affinity (bivalent). How it is done: as §4
The target in experiment [18] is human serum albumin (HSA) (human, UniProt P02768 25-609). Kind of experiment: SPR (ProteOn XPR36), MpA captured on bio.h4-1BB, HSA analyte, 1:1 Langmuir fit. How it is done:
as §3

The record followed here is patent publication US20240190999A1 (Molecular Partners, published 2024).

Sequence of cynomolgus serum albumin (CSA) (A2V9Z4 25-608 limits assumed): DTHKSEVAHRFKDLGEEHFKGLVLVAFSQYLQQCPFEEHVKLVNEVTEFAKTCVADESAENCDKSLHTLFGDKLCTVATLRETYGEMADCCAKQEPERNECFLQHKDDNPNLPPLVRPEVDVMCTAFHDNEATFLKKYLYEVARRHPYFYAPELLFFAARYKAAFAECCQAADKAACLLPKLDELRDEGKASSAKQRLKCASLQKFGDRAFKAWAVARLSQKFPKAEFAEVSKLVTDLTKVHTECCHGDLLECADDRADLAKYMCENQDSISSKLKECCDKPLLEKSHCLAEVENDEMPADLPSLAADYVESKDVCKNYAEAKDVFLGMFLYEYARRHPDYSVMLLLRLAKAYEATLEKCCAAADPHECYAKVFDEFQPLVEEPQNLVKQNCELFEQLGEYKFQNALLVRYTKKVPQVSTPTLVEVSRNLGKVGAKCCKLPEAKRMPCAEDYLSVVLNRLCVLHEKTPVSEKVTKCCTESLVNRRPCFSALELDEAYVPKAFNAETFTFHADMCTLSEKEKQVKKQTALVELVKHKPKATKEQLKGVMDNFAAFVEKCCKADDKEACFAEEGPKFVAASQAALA
Sequence of mouse serum albumin (MSA) (P07724 25-608 limits assumed): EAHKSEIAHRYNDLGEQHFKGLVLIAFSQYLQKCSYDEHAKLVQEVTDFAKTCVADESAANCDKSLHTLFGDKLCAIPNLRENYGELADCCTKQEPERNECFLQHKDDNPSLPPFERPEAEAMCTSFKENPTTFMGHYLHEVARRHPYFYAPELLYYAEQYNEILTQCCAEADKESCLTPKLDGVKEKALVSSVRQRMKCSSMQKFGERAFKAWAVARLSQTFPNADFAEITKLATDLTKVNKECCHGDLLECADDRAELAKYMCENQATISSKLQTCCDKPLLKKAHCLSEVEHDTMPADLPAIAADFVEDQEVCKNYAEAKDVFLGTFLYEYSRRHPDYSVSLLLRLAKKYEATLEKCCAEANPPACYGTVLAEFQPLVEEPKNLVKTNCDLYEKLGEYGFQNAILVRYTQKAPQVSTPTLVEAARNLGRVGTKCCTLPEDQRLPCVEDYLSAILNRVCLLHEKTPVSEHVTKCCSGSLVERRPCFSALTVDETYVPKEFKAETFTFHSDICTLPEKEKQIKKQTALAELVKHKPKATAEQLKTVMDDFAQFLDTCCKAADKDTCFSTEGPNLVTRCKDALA
T3 sequence (Q07011 24-186 limits assumed): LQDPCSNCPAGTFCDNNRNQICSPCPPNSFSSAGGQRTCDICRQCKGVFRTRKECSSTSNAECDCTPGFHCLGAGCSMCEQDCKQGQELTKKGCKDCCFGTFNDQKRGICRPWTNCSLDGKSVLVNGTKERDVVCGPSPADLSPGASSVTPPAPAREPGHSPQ
T2 sequence (Q07011 24-255 limits assumed): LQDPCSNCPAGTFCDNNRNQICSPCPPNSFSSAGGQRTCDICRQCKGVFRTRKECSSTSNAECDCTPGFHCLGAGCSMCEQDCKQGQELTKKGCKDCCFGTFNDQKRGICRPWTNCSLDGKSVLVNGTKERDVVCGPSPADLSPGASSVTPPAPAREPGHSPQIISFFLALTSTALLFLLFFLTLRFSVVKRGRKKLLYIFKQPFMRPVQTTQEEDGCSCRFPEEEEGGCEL
T4 sequence (Q07011 24-255 limits assumed): as above
Sequence of mouse FAP (mFAP) (P97321 26-761 limits assumed): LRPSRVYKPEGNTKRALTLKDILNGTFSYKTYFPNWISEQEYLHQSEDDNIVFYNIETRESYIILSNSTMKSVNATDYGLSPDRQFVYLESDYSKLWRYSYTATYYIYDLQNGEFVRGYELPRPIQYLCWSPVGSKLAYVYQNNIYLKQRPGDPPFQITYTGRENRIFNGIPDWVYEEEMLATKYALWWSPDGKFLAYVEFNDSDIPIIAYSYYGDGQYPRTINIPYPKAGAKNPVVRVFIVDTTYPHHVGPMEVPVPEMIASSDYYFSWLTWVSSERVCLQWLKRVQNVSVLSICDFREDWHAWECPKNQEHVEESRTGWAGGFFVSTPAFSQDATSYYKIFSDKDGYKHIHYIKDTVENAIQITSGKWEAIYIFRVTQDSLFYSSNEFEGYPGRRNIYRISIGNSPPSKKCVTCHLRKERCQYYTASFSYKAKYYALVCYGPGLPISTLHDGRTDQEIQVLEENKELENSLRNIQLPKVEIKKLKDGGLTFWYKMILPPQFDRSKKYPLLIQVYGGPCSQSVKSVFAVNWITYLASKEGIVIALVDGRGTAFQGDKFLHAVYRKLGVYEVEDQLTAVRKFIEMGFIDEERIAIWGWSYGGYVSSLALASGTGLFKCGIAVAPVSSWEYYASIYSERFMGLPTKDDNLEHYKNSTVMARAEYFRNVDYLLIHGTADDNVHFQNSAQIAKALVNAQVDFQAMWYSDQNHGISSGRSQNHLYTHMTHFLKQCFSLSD

B1: bispecific construct #44 (designed binder)
chain: MRGSHHHHHHGSDLGEKLLVAALYGQDDEVRILLAAGADVNAKDQWGLTPLHKAALQGHLEIVEVLLKAGADVNAKDERGHTPLHWAARFGHLEIVEVLLKAGADVNAQDQKGYTPADLAALWGHEDIAEVLQKAAGSPTPTPTTPTPTPTTPTPTPTGSDLGQKLLKAAQEGQDDEVRELLKAGADVNAKDLRGITPLHVAAWQGHLEIVEVLLKAGADVNAKDSKGETPLHLAAFRGHLEIVEVLLKAGADVNAQDQQGETPADLAALAGHVDIAEVLQKLN
notes: also called FAP-4-1BB bispecific construct #44
B1: the Kd is 0.1 to 0.4 nM in [1], 1.45 nM in [3] and 0.36 nM in experiment [5]. In addition, the “EC50, 4-1BB activation in HT1080 reporter cells in presence of FAP-beads” value in experiment [2] came out at 4.59 nM. For the same molecule, the “EC50, 4-1BB activation in HT1080 reporter cells in presence of FAP-expressing CHO cells (Population 2)” value in [4] was 0.36 nM. Moreover, the “EC50, 4-1BB activation in HT1080 reporter cells in presence of FAP-expressing CHO cells (Population 1)” value in experiment [6] turned out to be 0.47 nM.

B2: Multispecific binding protein A (MpA) (designed binder)
chain: GSDLGKKLLEAARAGQDDEVRELLKAGADVNAKDYFSHTPLHLAARNGHLKIVEVLLKAGADVNAKDFAGKTPLHLAAADGHLEIVEVLLKAGADVNAQDIFGKTPADIAADAGHEDIAEVLQKAAGSPTPTPTTPTPTPTTPTPTPTGSDLGKKLLEAARAGQDDEVRELLKAGADVNAKDVLGWTPLHLAAFEGHLEIVEVLLKAGADVNAKDKKGWTPLQLAARTGHLEIVEVLLKAGADVNAKDHIGATPLHLAAWQGHPEIVEVLLKAGADVNAQDKSGKTPADLAADAGHEDIAEVLQKAAGSPTPTPTTPTPTPTTPTPTPTGSDLGQKLLKAAQEGQDDEVRELLKAGADVNAKDLRGITPLHVAAWQGHLEIVEVLLKAGADVNAKDSKGETPLHLAAFRGHLEIVEVLLKAGADVNAQDQQGETPADLAALAGHVDIAEVLQKAAGSPTPTPTTPTPTPTTPTPTPTGSDLGQKLLKAAQEGQDDEVRELLKAGADVNAKDLRGITPLHVAAWQGHLEIVEVLLKAGADVNAKDSKGETPLHLAAFRGHLEIVEVLLKAGADVNAQDQQGETPADLAALAGHVDIAEVLQKAAGSPTPTPTTPTPTPTTPTPTPTGSDLGKKLLEAARAGQDDEVRELLKAGADVNAKDYFSHTPLHLAARNGHLKIVEVLLKAGADVNAKDFAGKTPLHLAAADGHLEIVEVLLKAGADVNAQDIFGKTPADIAADAGHEDIAEVLQKAA
notes: also called HFBBH
For the molecule B2, the “EC50, IFNγ production by primary human CD8 T cells (anti-CD3 plus plate-coated hFAP)” value in [7] was found to be 1.17 nM. For the same molecule, the Kd in experiment [8] worked out at 0.8 nM; in experiment [10] it was 38 nM; in [13], 67 nM; in experiment [16] it was 0.4 nM; in experiment [17], 0.013 nM; in experiment [18], 8 nM. Moreover, the koff in experiment [8] was found to be 0.00013 s⁻¹; in experiment [10], 0.038 s⁻¹; in [13] it was 0.075 s⁻¹; in experiment [15], 3.2e-05 s⁻¹; in experiment [16], 0.00013 s⁻¹; in experiment [18], 0.012 s⁻¹. Also, the kon in [8] was 170000 M⁻¹ s⁻¹; in experiment [10] it was 1e+06 M⁻¹ s⁻¹; in experiment [13], 1.1e+06 M⁻¹ s⁻¹; in experiment [15] it was 2.6e+06 M⁻¹ s⁻¹; in [16], 470000 M⁻¹ s⁻¹; in experiment [18] it was 1.5e+06 M⁻¹ s⁻¹. Moreover, the binding result in [9] was “no binding (tested: 50 nM highest concentration injected)”; in experiment [11], “no binding (tested: 30 nM highest concentration injected)”. In addition, the “EC50, NF-κB-luciferase reporter in h4-1BB-HT1080 cells with CHO-hFAP cells” value in experiment [12] stood at 0.41 nM. Moreover, in [14], the “EC50, IFNγ secretion of human CD8 T cells (plate-coated hFAP)” value fell in the range of 1 to 2 nM.

The term koff denotes the rate constant with which the complex falls apart. The low end stands for slow dissociation, the high end for fast dissociation. A word on the kon: it is the rate constant with which the complex forms. A higher kon goes with fast association.
